{"source": "paper PMC4405695", "about": "“The Rab6-regulated KIF1C kinesin motor domain contributes to Golgi organization” (eLife, 2015)", "key": {"myc-KIF1C-350": {"target": "T1, myc-KIF1C-350 (human, UniProt O43896 1-350)", "T1 construct": "KIF1C, human, N-terminal motor domain, residues 1-350; also called myc-KIF1C motor domain; in vitro translated KIF1C motor domain; source: in vitro translated", "T1 sequence (looked up)": "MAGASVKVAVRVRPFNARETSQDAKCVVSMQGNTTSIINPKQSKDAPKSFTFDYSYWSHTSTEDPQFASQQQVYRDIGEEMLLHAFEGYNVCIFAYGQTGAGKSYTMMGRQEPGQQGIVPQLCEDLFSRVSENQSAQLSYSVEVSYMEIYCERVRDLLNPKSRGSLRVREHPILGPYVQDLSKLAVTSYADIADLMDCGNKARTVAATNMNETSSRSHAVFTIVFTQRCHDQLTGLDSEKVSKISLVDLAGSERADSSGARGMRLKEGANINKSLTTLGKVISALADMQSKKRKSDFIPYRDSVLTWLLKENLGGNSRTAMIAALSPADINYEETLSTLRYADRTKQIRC", "test": "pull-down; concentration dependence: in vitro translated myc-KIF1C-350 with GTPγS-loaded GST-Rab6A Q72L; apparent KD; fit with KaleidaGraph", "details": "one partner purified"}, "[1]": {"target": "T2, Paclitaxel stabilized pre-polymerized microtubules (UniProt Q71U36 1-451; P07437 1-444, Paclitaxel-stabilized polymer, polymerized with GTP. One alpha/beta heterodimer represents the repeating unit. Source and isotypes are not given; mammalian (likely porcine) brain tubulin, a natural)", "test": "co-sedimentation; KIF1C-355-His (160 nM) with His-Rab6A Q72L, His-Rab33 or BSA (3.42 µM), then increasing microtubules, 2.6 mM ADP, 0.35 mM GTPγS; BRB80", "details": "both partners purified"}, "[2]": {"target": "T2, Paclitaxel stabilized pre-polymerized …", "test": "co-sedimentation; KIF1C-355-His (80 nM) with His-Rab6A Q72L (4.86 µM) or BSA (7.6 µM), then increasing microtubules, 2.6 mM AMP-PNP, 0.35 mM GTPγS; BRB80", "details": "both partners purified"}, "His-Rab6A Q72L": {"target": "T3, His-Rab6A Q72L (UniProt P20340 1-208, Q72L)", "T3 construct": "Rab6A GTPase, GTP-hydrolysis deficient mutant; also called active His-Rab6A; source: purified as described (Aivazian et al., 2006)", "test": "pull-down; concentration dependence: GTPγS-loaded His-Rab6A Q72L (0.58 μM) with GST-KIF1C CBD immobilized on glutathione Sepharose; quantitative fluorescent antibody immunoblot; fit with GraphPad Prism", "details": "both partners purified"}}}
{"binder": "GST-Rab6A Q72L (natural protein, UniProt P20340 1-208, looked up, Rab6A GTPase, GTP-hydrolysis deficient mutant; GTPγS-loaded; also called active Rab6A hydrolysis-deficient mutant; source: purified as described (Aivazian et al., 2006)) MSTGGDFGNPLRKFKLVFLGEQSVGKTSLITRFMYDSFDNTYQATIGIDFLSKTMYLEDRTVRLQLWDTAGLERFRSLIPSYIRDSTVAVVVYDITNVNSFQQTTKWIDDVRTERGSDVIIMLVGNKTDLADKRQVSIEEGERKAKELNVMFIETSAKAGYNVKQLFRRVAAALPGMESTQDRSREDMIDIKLEKPQEQPVSEGGCSC", "values": [{"measurement": "Kd", "setting": "myc-KIF1C-350", "result": 230, "unit": "nM"}]}
{"binder": "KIF1C-355-His (domain or fragment, KIF1C, human, motor domain residues 1-349; KIF5C heavy chain, murine, residues 329-334; Design follows Nitta et al., 2004 for KIF1A; also called recombinant KIF1C motor domain; purified KIF1C motor domain; source: E. coli Rosetta 2, purified (Ni-NTA, HiTrap Q FF); not shown: His6, C-terminal, kept) MAGASVKVAVRVRPFNARETSQDAKCVVSMQGNTTSIINPKQSKDAPKSFTFDYSYWSHTSTEDPQFASQQQVYRDIGEEMLLHAFEGYNVCIFAYGQTGAGKSYTMMGRQEPGQQGIVPQLCEDLFSRVSENQSAQLSYSVEVSYMEIYCERVRDLLNPKSRGSLRVREHPILGPYVQDLSKLAVTSYADIADLMDCGNKARTVAATNMNETSSRSHAVFTIVFTQRCHDQLTGLDSEKVSKISLVDLAGSERADSSGARGMRLKEGANINKSLTTLGKVISALADMQSKKRKSDFIPYRDSVLTWLLKENLGGNSRTAMIAALSPADINYEETLSTLRYADRTKQIRNTVSVN", "values": [{"measurement": "Kd", "setting": "[1]", "result": 2100, "unit": "nM"}, {"measurement": "fold increase of KD with His-Rab6A (ADP state)", "setting": "[1]", "result": "> 10", "unit": "fold"}, {"measurement": "Kd", "setting": "[2]", "result": 460, "unit": "nM"}, {"measurement": "fold increase of KD with His-Rab6A (AMP-PNP state)", "setting": "[2]", "result": "> 10", "unit": "fold"}]}
{"binder": "SYPQPPQPYPAQRPPGPRYPPYTTPPRMRRQRSAPDLKESGAAV (domain or fragment, human, UniProt O43896 1060-1103, looked up, the text calls it the C-terminal 40 amino acids; Text says 40 C-terminal residues, the legend AA 1060-1103 (44 residues); source: bacteria, purified (glutathione-Sepharose))", "note": "[GST-KIF1C CBD]", "values": [{"measurement": "Kd", "setting": "His-Rab6A Q72L", "result": 900, "unit": "nM"}]}
